Results from publication doi:10.1101/2022.03.18.484870 (bioRxiv, 2022).

B1: Alb3C-His (recombinant His-tagged C-terminus of Alb3, aa 350-462) (domain or fragment)
chain: VYLRKLGGAKPNMDENASKIISAGRAKRSIAQPDDAGERFRQLKEQEKRSKKNKAVAKDTVELVEESQSESEEGSDDEEEEAREGALASSTTSKPLPEVGQRRSKRSKRKRTV
B2: Alb4 15mer peptide spot (aa 394-408) (peptide)
peptide: PKPGERFRLLKEQEA
B3: Alb3 15mer peptide spot (aa 386-400) (peptide)
peptide: GERFRQLKEQEKRSK
B4: His-mSTIC2 (recombinant mature Arabidopsis thaliana STIC2, aa 49-182) (natural protein)
chain: VNGLFGGGNKDNNSEDGQSKAGIFGNMQNMYETVKKAQMVVQVEAVRVQKELAAAEFDGYCAGELVKVTLSGNQQPIRTDITEAAMELGSEKLSQLVTEAYKDAHAKSVVAMKERMSDLAQSLGMPPGLSEGMK

Assays:
[1] = target: B4; experiment: ITC
[2] = target: B4; experiment: peptide or protein array
[3] = target: T1, Alb4C-His (recombinant His-tagged C-terminus of Alb4, aa 334-499) (UniProt Q9FYL3 334-499); experiment: ITC
T1 sequence: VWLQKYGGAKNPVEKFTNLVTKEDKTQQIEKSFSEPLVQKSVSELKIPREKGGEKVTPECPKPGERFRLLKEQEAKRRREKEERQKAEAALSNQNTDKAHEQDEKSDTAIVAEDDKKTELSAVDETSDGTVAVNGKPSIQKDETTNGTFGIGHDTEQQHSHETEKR

| Binder | binding result [2] | also measured |
| --- | --- | --- |
| B1 | – | Kd [1]: 136 µM |
| B2 | binds | – |
| B3 | binds | – |
| B4 | – | Kd [3]: 16.6 µM |
